Results as given in IntAct's records for PubMed 28684427.

B1: ALBINO3-like protein 1, chloroplastic (Arabidopsis thaliana (Mouse-ear cress)), Q9FYL3 (parent)
chain: MSSTISLKPTHLILSSFSTGKVLQFRRSRFSHTPSSSSSRYRTLVAQLGFRPDSFDFIKDHAENLLYTIADAAVSSSETFESVAGTTTKTTQSNDWFSGIANYMETILKVLKDGLSTVHVPYSYGFAIILLTVLVKAATFPLTKKQVESAMAMKSLTPQIKAIQERYAGDQEKIQLETARLYKLAGINPLAGCLPTLATIPVWIGLYRALSNVADEGLLTEGFFWIPSLAGPTTVAARQNGSGISWLFPFIEGHPPLGWPDTLAYLVLPLLLVFSQYLSIQIMQSSQSNDPAMKSSQAVTKLLPLMIGYFALSVPSGLSLYWLTNNILSTAQQVWLQKYGGAKNPVEKFTNLVTKEDKTQQIEKSFSEPLVQKSVSELKIPREKGGEKVTPECPKPGERFRLLKEQEAKRRREKEERQKAEAALSNQNTDKAHEQDEKSDTAIVAEDDKKTELSAVDETSDGTVAVNGKPSIQKDETTNGTFGIGHDTEQQHSHETEKR
partner: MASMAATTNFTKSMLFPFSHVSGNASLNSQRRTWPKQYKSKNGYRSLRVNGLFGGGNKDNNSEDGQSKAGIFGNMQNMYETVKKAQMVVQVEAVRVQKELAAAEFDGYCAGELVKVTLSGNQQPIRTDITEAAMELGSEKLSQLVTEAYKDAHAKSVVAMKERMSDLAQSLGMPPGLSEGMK

Variants of: B1
Details: with ebfc2_arath STIC2, O82230
For MSSTISLKPTHLILSSFSTGKVLQFRRSRFSHTPSSSSSRYRTLVAQLGFRPDSFDFIKDHAENLLYTIADAAVSSSETFESVAGTTTKTTQSNDWFSGIANYMETILKVLKDGLSTVHVPYSYGFAIILLTVLVKAATFPLTKKQVESAMAMKSLTPQIKAIQERYAGDQEKIQLETARLYKLAGINPLAGCLPTLATIPVWIGLYRALSNVADEGLLTEGFFWIPSLAGPTTVAARQNGSGISWLFPFIEGHPPLGWPDTLAYLVLPLLLVFSQYLSIQIMQSSQSNDPAMKSSQAVTKLLPLMIGYFALSVPSGLSLYWLTNNILSTAQQVWLQKYGGAKNPVEKFTNLVTKEDKTQQIEKSFSEPLVQKSVSELKIPREKGGEKVTPECPKPSERFRLLKEQEAKRRREKEERQKAEAALSNQNTDKAHEQDEKSDTAIVAEDDKKTELSAVDETSDGTVAVNGKPSIQKDETTNGTFGIGHDTEQQHSHETEKR [G397S], the “effect of a mutation on the interaction” value was “decreasing interaction strength”.

Variants of: B1
Details: with ebfc2_arath STIC2, O82230
Remark: another data set of the same source
With MSSTISLKPTHLILSSFSTGKVLQFRRSRFSHTPSSSSSRYRTLVAQLGFRPDSFDFIKDHAENLLYTIADAAVSSSETFESVAGTTTKTTQSNDWFSGIANYMETILKVLKDGLSTVHVPYSYGFAIILLTVLVKAATFPLTKKQVESAMAMKSLTPQIKAIQERYAGDQEKIQLETARLYKLAGINPLAGCLPTLATIPVWIGLYRALSNVADEGLLTEGFFWIPSLAGPTTVAARQNGSGISWLFPFIEGHPPLGWPDTLAYLVLPLLLVFSQYLSIQIMQSSQSNDPAMKSSQAVTKLLPLMIGYFALSVPSGLSLYWLTNNILSTAQQVWLQKYGGAKNPVEKFTNLVTKEDKTQQIEKSFSEPLVQKSVSELKIPREKGGEKVTPECPKPSERFRLLKEQEAKRRREKEERQKAEAALSNQNTDKAHEQDEKSDTAIVAEDDKKTELSAVDETSDGTVAVNGKPSIQKDETTNGTFGIGHDTEQQHSHETEKR [G397S] the “effect of a mutation on the interaction” value was “with no effect”.
